Test results published in article PMC9192595, “Dynamic interaction of BRCA2 with telomeric G-quadruplexes underlies telomere replication homeostasis”.

Key:
BRCA2OB [1] = target: T1, BRCA2OB (human, UniProt P51587 2665-3197); experiment: EMSA; 100 mM KCl; EMSA: 10 nM probe, 50 mM Tris-HCl pH 7.5, 100 mM KCl, 2 mM b-ME, 10% glycerol, probe pre-incubated 37 C, gel 4 C (RAD51: +1 mM MgCl2, 2 mM ATP); smFRET: 50 mM Tris-HCl pH 7.9, 100 mM KCl, 20 mM NaCl, 1 mM DTT, 0.1 mg/ml BSA, 9% glycerol, 37 C; details: protein: recombinant, tags: N-MBP, C-6xHis, label: 5' 32P
T1 sequence: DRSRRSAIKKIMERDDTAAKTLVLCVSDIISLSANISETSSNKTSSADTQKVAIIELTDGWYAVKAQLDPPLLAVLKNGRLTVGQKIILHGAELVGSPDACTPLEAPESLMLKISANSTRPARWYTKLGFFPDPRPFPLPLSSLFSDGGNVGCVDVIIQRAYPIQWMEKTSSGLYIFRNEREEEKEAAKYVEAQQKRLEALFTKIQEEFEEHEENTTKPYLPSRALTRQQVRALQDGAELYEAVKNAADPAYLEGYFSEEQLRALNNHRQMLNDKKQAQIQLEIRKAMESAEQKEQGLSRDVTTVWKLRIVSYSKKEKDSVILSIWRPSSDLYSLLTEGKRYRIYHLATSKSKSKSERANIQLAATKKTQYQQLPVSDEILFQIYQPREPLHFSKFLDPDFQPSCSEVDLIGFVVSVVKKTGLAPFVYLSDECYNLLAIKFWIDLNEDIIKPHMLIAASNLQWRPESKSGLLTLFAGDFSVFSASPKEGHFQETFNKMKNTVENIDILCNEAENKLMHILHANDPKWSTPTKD

POT1OB = target: T2, POT1OB (human, UniProt Q9NUX5 10-278); experiment: as above; details: protein: recombinant; tags: N-MBP, C-6xHis; label: 5' 32P; intramolecular G4
T2 sequence: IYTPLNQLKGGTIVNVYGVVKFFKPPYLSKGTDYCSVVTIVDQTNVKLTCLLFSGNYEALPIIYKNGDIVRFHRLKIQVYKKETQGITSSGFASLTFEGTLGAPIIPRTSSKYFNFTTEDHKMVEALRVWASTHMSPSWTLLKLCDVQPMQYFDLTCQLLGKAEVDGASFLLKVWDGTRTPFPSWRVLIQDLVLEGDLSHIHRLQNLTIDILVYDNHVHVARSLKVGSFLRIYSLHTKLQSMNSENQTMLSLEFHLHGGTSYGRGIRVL

BRCA2OB [2] = target: T1, BRCA2OB; experiment: as above; details: protein: recombinant; tags: N-MBP, C-6xHis; label: 5' 32P; intramolecular G4
BRCA2OB [3] = target: T1, BRCA2OB; experiment: EMSA; 100 mM KCl; rough estimate, max protein 1 uM; EMSA: 10 nM probe, 50 mM Tris-HCl pH 7.5, 100 mM KCl, 2 mM b-ME, 10% glycerol, probe pre-incubated 37 C, gel 4 C (RAD51: +1 mM MgCl2, 2 mM ATP); smFRET: 50 mM Tris-HCl pH 7.9, 100 mM KCl, 20 mM NaCl, 1 mM DTT, 0.1 mg/ml BSA, 9% glycerol, 37 C; details: protein: recombinant; tags: N-MBP, C-6xHis; label: 5' 32P; intramolecular G4
BRCA2OB [4] = target: T1, BRCA2OB; experiment: EMSA; EMSA: 10 nM probe, 50 mM Tris-HCl pH 7.5, 100 mM KCl, 2 mM b-ME, 10% glycerol, probe pre-incubated 37 C, gel 4 C (RAD51: +1 mM MgCl2, 2 mM ATP); smFRET: 50 mM Tris-HCl pH 7.9, 100 mM KCl, 20 mM NaCl, 1 mM DTT, 0.1 mg/ml BSA, 9% glycerol, 37 C; details: protein: recombinant; tags: N-MBP, C-6xHis; label: 5' 32P
BRCA2OB [5] = target: T1, BRCA2OB; experiment: smFRET; 0.1 and 1 uM BRCA2OB; EMSA: 10 nM probe, 50 mM Tris-HCl pH 7.5, 100 mM KCl, 2 mM b-ME, 10% glycerol, probe pre-incubated 37 C, gel 4 C (RAD51: +1 mM MgCl2, 2 mM ATP); smFRET: 50 mM Tris-HCl pH 7.9, 100 mM KCl, 20 mM NaCl, 1 mM DTT, 0.1 mg/ml BSA, 9% glycerol, 37 C; details: protein: recombinant, tags: N-MBP, C-6xHis, label: 3' Cy3, stem 5' Cy5, 3' biotin
BRCA2OB [6] = target: T1, BRCA2OB; experiment: smFRET; 1 uM BRCA2OB; EMSA: 10 nM probe, 50 mM Tris-HCl pH 7.5, 100 mM KCl, 2 mM b-ME, 10% glycerol, probe pre-incubated 37 C, gel 4 C (RAD51: +1 mM MgCl2, 2 mM ATP); smFRET: 50 mM Tris-HCl pH 7.9, 100 mM KCl, 20 mM NaCl, 1 mM DTT, 0.1 mg/ml BSA, 9% glycerol, 37 C; details: protein: recombinant; tags: N-MBP, C-6xHis; label: 3' Cy3; stem 5' Cy5, 3' biotin
GST-B2-9 = target: T3, GST-B2-9 (human, UniProt P51587 3189-3418); experiment: EMSA; 150 mM KCl; EMSA: 10 nM probe, 50 mM Tris-HCl pH 7.5, 100 mM KCl, 2 mM b-ME, 10% glycerol, probe pre-incubated 37 C, gel 4 C (RAD51: +1 mM MgCl2, 2 mM ATP); smFRET: 50 mM Tris-HCl pH 7.9, 100 mM KCl, 20 mM NaCl, 1 mM DTT, 0.1 mg/ml BSA, 9% glycerol, 37 C; details: protein: recombinant; tags: GST; label: 32P
T3 sequence: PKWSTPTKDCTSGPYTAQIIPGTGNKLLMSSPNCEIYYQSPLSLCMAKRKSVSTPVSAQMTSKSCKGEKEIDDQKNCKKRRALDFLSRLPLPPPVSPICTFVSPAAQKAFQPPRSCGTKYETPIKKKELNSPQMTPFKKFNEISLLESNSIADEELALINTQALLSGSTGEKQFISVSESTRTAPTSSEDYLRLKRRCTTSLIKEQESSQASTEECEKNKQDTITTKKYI

GST-B2-7 = target: T4, GST-B2-7 (human, UniProt P51587 2438-2824); experiment: as above; details: protein: recombinant; tags: GST; label: 32P
T4 sequence: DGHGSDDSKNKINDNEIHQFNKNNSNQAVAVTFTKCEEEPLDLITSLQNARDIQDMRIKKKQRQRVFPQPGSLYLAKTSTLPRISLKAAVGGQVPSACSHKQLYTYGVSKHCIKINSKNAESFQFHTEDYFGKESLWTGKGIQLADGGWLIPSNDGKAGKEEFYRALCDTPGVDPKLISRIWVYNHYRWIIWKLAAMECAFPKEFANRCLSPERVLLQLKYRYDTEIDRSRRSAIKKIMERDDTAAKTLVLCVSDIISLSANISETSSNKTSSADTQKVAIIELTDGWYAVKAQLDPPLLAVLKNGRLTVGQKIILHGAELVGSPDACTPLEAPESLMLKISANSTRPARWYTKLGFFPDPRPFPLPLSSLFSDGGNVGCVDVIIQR

GST-B2-8 = target: T5, GST-B2-8 (human, UniProt P51587 2780-3197); experiment: as above; details: protein: recombinant; tags: GST; label: 32P
T5 sequence: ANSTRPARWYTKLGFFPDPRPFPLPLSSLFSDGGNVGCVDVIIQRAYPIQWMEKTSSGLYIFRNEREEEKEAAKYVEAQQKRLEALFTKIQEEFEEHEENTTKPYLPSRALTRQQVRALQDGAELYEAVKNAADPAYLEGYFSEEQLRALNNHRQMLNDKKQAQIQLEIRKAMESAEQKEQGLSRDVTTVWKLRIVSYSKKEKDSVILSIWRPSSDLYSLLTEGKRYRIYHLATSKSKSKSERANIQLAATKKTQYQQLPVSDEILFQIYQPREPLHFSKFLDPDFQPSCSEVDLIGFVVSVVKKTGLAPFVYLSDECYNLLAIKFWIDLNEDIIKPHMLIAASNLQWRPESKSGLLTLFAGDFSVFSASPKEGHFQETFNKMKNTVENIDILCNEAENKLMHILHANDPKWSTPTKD

[7] = 29 bp stem with 3' G4 overhang 30 nt

B1: TelG5:TelC5 (dsDNA)
DNA 1: GGTTAGGGTTAGGGTTAGGGTTAGGGTTAG
DNA 2: CTAACCCTAACCCTAACCCTAACCCTAACC
B1: no binding (BRCA2OB [1]; blunt).

GGTTAGGGTTAGGGTTAG (ssDNA) [TelG3]: no binding (BRCA2OB [1]).

GGTTAGGGTTAGGGTTAGGGTTAGGGTTAGGGTTAG (structured_DNA) [TelG6]: binds (BRCA2OB [1]; intramolecular G4).

AGTTAGAGTTAGAGTTAGAGTTAGAGTTAG (ssDNA) [TelG5GAG]: no binding (BRCA2OB [1]; unfolded).

With GGTTGGGGTTGGGGTTGGGGTTGGGGTTGG (structured_DNA) [TelG5T2G4] the binding result (POT1OB) was “no binding”, the binding signal (BRCA2OB [2]) was roughly 3 fold vs TelG5 and the Kd (BRCA2OB [3]) was 1400 nM.

GCTAGGGCTAGGGCTAGGGCTAGGGCTAG (structured_DNA) [TelG-CTA]: no binding (BRCA2OB [4]).

B2: TelG5 smFRET (mixed)
DNA 1: GCGTGGCACCGGTAATAGGAGATAGGAGAGGTTAGGGTTAGGGTTAGGGTTAGGGTTAG
DNA 2: TCTCCTATCTCCTATTACCGGTGCCACGC
modifications: 3' amino; stem 5' amino
B2: binds (BRCA2OB [5]; [7]).

B3: TelG5TTT smFRET (mixed)
DNA 1: GCGTGGCACCGGTAATAGGAGATAGGAGAGGTTTGGGTTTGGGTTTGGGTTTGGGTTTG
DNA 2: TCTCCTATCTCCTATTACCGGTGCCACGC
modifications: 3' amino; stem 5' amino
B3: binds (BRCA2OB [5]; [7]).

B4: TelG5TT smFRET (mixed)
DNA 1: GCGTGGCACCGGTAATAGGAGATAGGAGAGGTTTGGGTTGGGTTGGGTTGGGTTTG
DNA 2: TCTCCTATCTCCTATTACCGGTGCCACGC
modifications: 3' amino; stem 5' amino
B4: binds (BRCA2OB [5]; 29 bp stem with 3' G4 overhang 27 nt).

B5: TelG5CTA smFRET (mixed)
DNA 1: GCGTGGCACCGGTAATAGGAGATAGGAGAGGCTAGGGCTAGGGCTAGGGCTAGGGCTAG
DNA 2: TCTCCTATCTCCTATTACCGGTGCCACGC
modifications: 3' amino; stem 5' amino
B5: no binding (BRCA2OB [6]).

GCCCGCGGTTAGGGTTAGGGTTAGGGTTAGGGGTGAATTC (ssDNA) [telomeric G-rich strand (40 nt)]: no binding (GST-B2-9); no binding (GST-B2-7); binds (GST-B2-8).

GAATTCACCCCTAACCCTAACCCTAACCCTAACCGCGGGC (ssDNA) [telomeric C-rich strand (40 nt)]: no binding (GST-B2-9); no binding (GST-B2-7); no binding (GST-B2-8).

CTAACCCTAACCCTAACCCTAACCCTAACC (ssDNA) [TelC5]: no binding (BRCA2OB [1]).
